Assay results published in article PMC5432575, “CRP Regulates D-Lactate Oxidation in Shewanella oneidensis MR-1”.

Legend:
[1] = molecular target: T1, CRP (N-his-CRP) (Shewanella oneidensis MR-1) (UniProt Q8EJ49); assay: EMSA; settings: 20 ul: 2 nM Cy3-labeled probe, 50 ng N-his-CRP, 50 uM cAMP, buffer as in Kasai et al. 2015 (salt, pH, temperature not given)
T1 sequence: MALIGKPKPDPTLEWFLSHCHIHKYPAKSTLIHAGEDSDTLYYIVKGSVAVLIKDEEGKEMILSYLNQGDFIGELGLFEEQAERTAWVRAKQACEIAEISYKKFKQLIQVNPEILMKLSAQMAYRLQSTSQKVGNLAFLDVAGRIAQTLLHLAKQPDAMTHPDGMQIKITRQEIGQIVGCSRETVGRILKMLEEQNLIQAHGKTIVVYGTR

[2] = molecular target: CRP (N-his-CRP) (Shewanella oneidensis MR-1, UniProt Q8EJ49 1-211); assay: EMSA; 50 uM cAMP; EMSA, 20 ul: 2 nM Cy3-labeled probe, 50 ng N-his-CRP, 50 uM cAMP; buffer as in Kasai et al. 2015 (salt, pH, temperature not given); settings: protein: recombinant; tags: N-terminal His tag; chain copies: 2; label: 5'-Cy3 (forward strand); blunt

## GGATCAGTTAATTGCAATACTGATAGCTAATTTAATGAAAATTTCCTTTTTTATAACTATCTGACATGTTTTTTAAAAAAATATTTGAATGGAGTTATATATACCCCACTCTTTAAGTGACA (double strand) [PBlldP1]
[1]
  binding: no binding

## GGATCAGTTAATTGCAATACTGATAGCTAATTTAATGAAAATTTCCTTTTTTATAACTATCTGACATGTTTTTTAAAAAAATATTTGAATGGAGTTATATATACCCCACTCTTTAAGTGACACCGATCACAGTTAAGAAAATCCCATGAGAGAAGCCTCCCGCAGCACTGTAAATTAGCATT (double strand) [PBlldP2]
[1]
  binding: binds

B1: PBlldP3m (dsDNA)
DNA 1: ATATACCCCACTCTTTACCCCCCACCGAGGGGGGTTAAGAAAATCCCATG
DNA 2: CATGGGATTTTCTTAACCCCCCTCGGTGGGGGGTAAAGAGTGGGGTATAT
[2]
  binding result: no binding

B2: PBlldP3 (dsDNA)
DNA 1: ATATACCCCACTCTTTAAGTGACACCGATCACAGTTAAGAAAATCCCATG
DNA 2: CATGGGATTTTCTTAACTGTGATCGGTGTCACTTAAAGAGTGGGGTATAT
[2]
  binding result: binds
